From publication PMC13193136

System: SOX2 DNA-binding domain (human)
Test: PIC-NIC microarray
Conditions: Protein-specific binding buffers (Supplementary Methods, not in the material), PBM incubation 1 h at room temperature, hybridization simulated at 150 mM Na+ …

SOX2 site intact was tested, and the binding signal (fold (reference)) was 1.
For SOX2 site nick 3, 5'P retained, the binding signal (fold signal vs intact duplex) (nick at position 3, 5' phosphate) was 3.
